For this experiment, the target named is SARS-CoV-2原始毒株的RBD蛋白 (SARS-CoV-2 RBD-his) (SARS-CoV-2原始毒株, UniProt P0DTC2 319-541).

B1: 单链纳米抗体S43 (S43-his蛋白) (VHH)
VHH: QVQLQESGGGLVQPGGSLRLTCAPSGFTLDYYAIGWFRQAPGKEREGVSCISSNNSTYYADSVKGRFTISRDNAKNTVYLQMNSLKPEDTAVYYCAAEPDYSGVYYYTCGWTDFGSWGQGTQVTVSS
One may read the Kd as a measure of binding affinity in units of concentration. B1 displayed a Kd of 0.12 nM.

The record behind these values is patent publication CN116813758A (INST MICROBIOLOGY CAS, dated 2023).
